Literature values, collected in publication PMC2774623.

Target: CK2 alpha (Homo sapiens) (UniProt P68400)
Experiment: SPR

Sequence of CK2 beta (P67870 2-215): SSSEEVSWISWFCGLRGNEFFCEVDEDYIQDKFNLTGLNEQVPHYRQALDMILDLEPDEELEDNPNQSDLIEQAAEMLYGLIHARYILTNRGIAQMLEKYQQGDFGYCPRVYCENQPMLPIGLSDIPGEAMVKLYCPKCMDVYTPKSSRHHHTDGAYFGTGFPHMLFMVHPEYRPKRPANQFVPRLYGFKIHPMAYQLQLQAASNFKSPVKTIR
Sequence of CK2 alpha (Homo sapiens) (P68400 whole entry): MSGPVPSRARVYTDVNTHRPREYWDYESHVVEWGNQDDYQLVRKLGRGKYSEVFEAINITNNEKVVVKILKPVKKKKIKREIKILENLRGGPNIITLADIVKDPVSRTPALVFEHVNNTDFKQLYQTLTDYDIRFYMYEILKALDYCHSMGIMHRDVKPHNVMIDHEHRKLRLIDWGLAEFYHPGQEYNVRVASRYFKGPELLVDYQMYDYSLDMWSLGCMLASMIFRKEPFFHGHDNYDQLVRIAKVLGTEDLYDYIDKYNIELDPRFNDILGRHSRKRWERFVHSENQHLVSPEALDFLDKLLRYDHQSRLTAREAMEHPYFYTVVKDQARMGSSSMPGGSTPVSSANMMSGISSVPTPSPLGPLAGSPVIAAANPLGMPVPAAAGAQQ

Kd: 40.8 nM
Substance: CK2 beta (from UniProt P67870)
